Measured values from US20210371536A1 (SEOUL NATIONAL UNIVERSITY R AND DB FOUNDATION, published 2021).

T1: cynomolgus monkey PDGFR-β (Fc chimera) (cynomolgus monkey)
T1 construct: not shown: human Fc (hFc) and its junction to the receptor part
T1 chain: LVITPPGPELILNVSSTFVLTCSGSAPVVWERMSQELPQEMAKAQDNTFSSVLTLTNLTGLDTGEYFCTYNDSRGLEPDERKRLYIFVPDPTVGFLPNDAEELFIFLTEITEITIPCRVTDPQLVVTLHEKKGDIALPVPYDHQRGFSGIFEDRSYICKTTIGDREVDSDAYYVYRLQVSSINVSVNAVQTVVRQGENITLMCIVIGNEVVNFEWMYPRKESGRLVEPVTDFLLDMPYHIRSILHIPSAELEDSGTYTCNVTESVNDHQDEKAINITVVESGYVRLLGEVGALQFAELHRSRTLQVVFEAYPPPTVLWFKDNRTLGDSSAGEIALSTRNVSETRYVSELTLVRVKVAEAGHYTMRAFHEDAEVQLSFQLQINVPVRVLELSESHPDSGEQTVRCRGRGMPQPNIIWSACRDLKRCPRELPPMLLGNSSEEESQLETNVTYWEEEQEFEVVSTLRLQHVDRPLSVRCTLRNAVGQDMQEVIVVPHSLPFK

T2: Sus scrofa PDGFR-β-Fc chimera (Sus scrofa, UniProt Q6QNF3 33-530 (dog entry))
T2 construct: also called Sus crowfa PDGFR-β; not shown: human Fc (hFc) and its junction to the receptor part
T2 chain: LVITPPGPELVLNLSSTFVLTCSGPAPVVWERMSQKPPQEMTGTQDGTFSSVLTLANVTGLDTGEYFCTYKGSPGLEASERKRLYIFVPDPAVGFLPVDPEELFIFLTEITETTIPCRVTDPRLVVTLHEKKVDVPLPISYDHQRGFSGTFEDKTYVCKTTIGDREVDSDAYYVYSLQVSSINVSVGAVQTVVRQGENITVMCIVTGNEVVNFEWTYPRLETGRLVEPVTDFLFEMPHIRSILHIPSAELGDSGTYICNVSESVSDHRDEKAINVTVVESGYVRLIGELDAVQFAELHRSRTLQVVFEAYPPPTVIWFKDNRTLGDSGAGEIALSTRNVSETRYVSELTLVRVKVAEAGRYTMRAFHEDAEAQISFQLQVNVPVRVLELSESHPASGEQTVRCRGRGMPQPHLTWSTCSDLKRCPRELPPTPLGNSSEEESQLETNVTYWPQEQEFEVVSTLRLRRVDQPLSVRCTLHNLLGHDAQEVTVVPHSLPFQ


Experiments:
[1] = molecular target: hPDGFR-β on human pericyte cells (human, UniProt P09619 33-1106); assay: cell-based or functional assay
[2] = molecular target: T1, cynomolgus monkey PDGFR-β (Fc chimera); assay: cross-species ELISA on coated antigen, 100 nM bispecific, HRP-anti-human Cκ detection
[3] = molecular target: T2, Sus scrofa PDGFR-β-Fc chimera; assay: as above
[4] = molecular target: T3, mPDGFR-β on NIH3T3 cells (mouse, UniProt P05622 32-1098); assay: flow cytometry on NIH3T3 cells expressing mPDGFR-β, 100 nM, APC-anti human Cκ detection
T3 construct: whole, on cells; also called NIH3T3 cells expressing mPDGFR-β; PDGFR-β present on the cell surface

[5] = molecular target: T3, mPDGFR-β on NIH3T3 cells; assay: flow cytometry on NIH3T3 cells expressing mPDGFR-β, streptavidin-PE detection
Method: The cells were treated with APC-anti human Cκ antibody and streptavidin-PE.
After washing, it was classified and analyzed with a FACS Canto II instrument (BD Biosciences, San Jose, Calif., USA). 10,000 cells were used for each measurement, and the results were analyzed by FlowJo (Tree Star, Ashland, Oreg., USA).

Chain of hPDGFR-β on human pericyte cells (P09619 33-1106): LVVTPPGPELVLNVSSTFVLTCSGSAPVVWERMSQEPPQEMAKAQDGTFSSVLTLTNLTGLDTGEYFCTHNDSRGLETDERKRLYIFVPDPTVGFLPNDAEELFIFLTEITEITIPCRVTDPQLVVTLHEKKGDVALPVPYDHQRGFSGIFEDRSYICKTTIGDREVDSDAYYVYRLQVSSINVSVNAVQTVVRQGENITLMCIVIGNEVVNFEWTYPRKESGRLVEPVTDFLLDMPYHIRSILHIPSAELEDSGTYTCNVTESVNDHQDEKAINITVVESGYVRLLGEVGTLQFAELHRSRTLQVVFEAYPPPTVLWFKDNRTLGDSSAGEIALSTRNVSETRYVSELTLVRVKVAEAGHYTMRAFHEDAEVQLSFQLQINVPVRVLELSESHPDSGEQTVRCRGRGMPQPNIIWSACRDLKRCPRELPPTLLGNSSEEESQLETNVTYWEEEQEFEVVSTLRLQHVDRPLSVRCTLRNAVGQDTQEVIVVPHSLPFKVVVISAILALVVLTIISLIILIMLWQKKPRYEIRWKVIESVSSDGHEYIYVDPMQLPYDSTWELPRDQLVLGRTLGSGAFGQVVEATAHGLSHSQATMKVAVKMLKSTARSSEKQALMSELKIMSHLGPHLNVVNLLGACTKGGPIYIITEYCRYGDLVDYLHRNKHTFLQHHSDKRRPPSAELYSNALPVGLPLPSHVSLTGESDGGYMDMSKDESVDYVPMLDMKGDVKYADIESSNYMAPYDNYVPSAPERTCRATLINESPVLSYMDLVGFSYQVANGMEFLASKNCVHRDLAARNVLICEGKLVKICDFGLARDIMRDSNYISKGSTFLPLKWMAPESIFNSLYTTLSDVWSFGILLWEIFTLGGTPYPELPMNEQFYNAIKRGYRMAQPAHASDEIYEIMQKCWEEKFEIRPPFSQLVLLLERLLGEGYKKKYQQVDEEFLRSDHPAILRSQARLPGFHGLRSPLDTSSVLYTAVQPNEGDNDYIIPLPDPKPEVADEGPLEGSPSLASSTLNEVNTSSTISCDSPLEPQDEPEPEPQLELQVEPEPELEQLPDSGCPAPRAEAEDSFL
T3 sequence (P05622 32-1098): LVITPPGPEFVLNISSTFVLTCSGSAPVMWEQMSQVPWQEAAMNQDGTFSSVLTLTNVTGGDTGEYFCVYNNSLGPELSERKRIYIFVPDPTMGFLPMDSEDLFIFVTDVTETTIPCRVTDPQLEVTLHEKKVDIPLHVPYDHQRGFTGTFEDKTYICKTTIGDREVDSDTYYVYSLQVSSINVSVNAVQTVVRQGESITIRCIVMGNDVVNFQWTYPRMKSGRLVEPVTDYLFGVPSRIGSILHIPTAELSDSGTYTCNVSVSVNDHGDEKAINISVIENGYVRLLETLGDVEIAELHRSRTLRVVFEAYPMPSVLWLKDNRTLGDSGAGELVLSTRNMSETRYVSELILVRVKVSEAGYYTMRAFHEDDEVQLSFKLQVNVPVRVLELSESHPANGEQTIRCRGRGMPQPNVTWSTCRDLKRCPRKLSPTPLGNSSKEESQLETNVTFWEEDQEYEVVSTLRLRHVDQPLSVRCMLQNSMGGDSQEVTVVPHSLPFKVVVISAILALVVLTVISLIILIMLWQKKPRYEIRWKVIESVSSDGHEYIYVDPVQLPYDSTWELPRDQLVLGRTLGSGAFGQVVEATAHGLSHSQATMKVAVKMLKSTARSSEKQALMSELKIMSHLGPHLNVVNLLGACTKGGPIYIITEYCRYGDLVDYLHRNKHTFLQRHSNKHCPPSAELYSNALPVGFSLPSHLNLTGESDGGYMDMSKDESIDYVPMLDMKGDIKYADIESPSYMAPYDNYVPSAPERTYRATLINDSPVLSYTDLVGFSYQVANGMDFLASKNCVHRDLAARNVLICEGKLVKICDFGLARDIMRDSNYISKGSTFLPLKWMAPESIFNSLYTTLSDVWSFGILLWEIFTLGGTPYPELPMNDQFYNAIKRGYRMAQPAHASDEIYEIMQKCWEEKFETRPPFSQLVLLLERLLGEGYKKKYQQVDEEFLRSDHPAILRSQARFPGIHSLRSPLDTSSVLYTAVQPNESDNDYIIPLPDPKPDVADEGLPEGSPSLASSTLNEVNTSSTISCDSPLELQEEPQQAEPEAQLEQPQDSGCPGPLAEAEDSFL

Binder	IC50 (nM) of relative cell viability (cellular ATP), human pericyte cells, bispecific complexed with cot-duo, with hPDGF-BB [1] [nM]	IC50 (nM) of relative cell viability (cellular ATP), human pericyte cells, bispecific complexed with cot-duo, without hPDGF-BB [1] [nM]	binding result [2]	binding result [3]	binding result [4]	binding result [5]
PRb-CN32 x cotinine scFv-Cκ-scFv fusion protein (bispecific antibody) (bispecific antibody, also called PRb-32; PRb-CN32 bispecific scFv-Cκ-scFv) LTQPSSVSANLGETVKITCSGGSNAGSYYYGWYQQKSPGSAPVTVIYSNNQRPSDIPSRFSGSTSGSTSTLTITGVQVDDEAVYFCGSGDSSSIAAFGAGTTLTVLGQSSRSSGGGGSSGGGGSAVTLDESGGGLQTPRGTLSLVCKASGFTFSSFNMFWVRQAPGKGLEFVAGISTTGRYTGYGSAVQGRGTISRDNGQSTVRLQLNNLRAEDTGTYYCAKSAGSTYSYWDSDAGLIDAWGHGTEVIVSSTSGGGGSGGGGSGGGGSRTVAAPSVFIFPPSDEQLKSGTASVVCLLNNFYPREAKVQWKVDNALQSGNSQESVTEQDSKDSTYSLSSTLTLSKADYEKHKVYACEVTHQGLSLPVTKSFNRGESGGGGSGGGGSGGGGSDIQMTQSPSSLSASVGDRVTITCQSSQSPYSNEWLSWYQQKPGKAPKLLIYRISTLASGVPSRFSGSRSGTDFTLTISSLQPEDFATYYCAGGYNFGLFLFGQGTKVEIKGQSSRSSGGGGSSGGGGSEVQLVESGGGLVQPGGSLRLSCAASGHLRRRDWMNWVRQAPGKGLEWVAAIGRSGDTYYATWAKGRFTISADTSKNTAYLQMNSLRAEDTAVYYCSRIPYFGWNNGDIWGQGTLVTVSS	0.87	0.78	binds	binds	binds	
mPDGF-BB-biotin (ligand, mouse, UniProt P31240 82-190, looked up, biotinylated (biotin-xx microscale protein labeling kit); sites not stated, also called biotin-mPDGF-BB) SLGSLAAAEPAVIAECKTRTEVFQISRNLIDRTNANFLVWPPCVEVQRCSGCCNNRNVQCRASQVQMRPVQVRKIEIVRKKPIFKKATVTLEDHLACKCETIVTPRPVT						binds
